Laboratory results from patent US20220412975.

T1: (HiLyteFluor-488)-DELSSMVLELRGLRT-K(QXL520)-E-NH2
T1 chain: DELSSMVLELRGLRTK

T2: TSP1-4 substrate, (HiLyteFluor-488)-EENKELANELRRPPL-K(QXL520)-NH2
T2 chain: EENKELANELRRPPLK

T3: TSP1-3 substrate, (HiLyteFluor-488)-KVTEENKELANELRR-K(QXL520)-NH2
T3 chain: KVTEENKELANELRRK

T4: TSP1-1 substrate, (HiLyteFluor-488)-DELSSMVLELRGLRT-K(QXL520)-NH2
T4 chain: DELSSMVLELRGLRTK

T5: COMP1 candidate peptide, (Donor) GMQQSVRTGLPS (K-Quencher)
T5 chain: GMQQSVRTGLPS

T6: TSP1-2 substrate, (HiLyteFluor-488)-SSMVLELRGLRTIVT-K(QXL520)-NH2
T6 chain: SSMVLELRGLRTIVTK

T7: TSP1-5 substrate, (HiLyteFluor-488)-SSMVLELRGLRT-K(QXL520)-NH2
T7 chain: SSMVLELRGLRTK

T8: COMP2 candidate peptide, (Donor) SPGFRC(Acm)EAC(Acm)PPGYS (K-Quencher)
T8 chain: SPGFRCEACPPGYS

B1: Rat/human ADAMTS-12 chimera, rPro-hCD (Rat 1-244/Human 241-543)-3xFLAG (protein)
chain: HGRQAQPWPVRFPDPKQEHFIKSLPEYHIVSPVQVDASGHFLSYGLHHPVTGSRKKRAAGGSGDQVYYRISHEEKNLFFNLTVNWEFLSNGYVVERRYGNLSHVKMAASSGQPCHLRGTVLQQGPTIRMGTAALSACQGLTGFFHLPHGDFFIEPVKKHPLTEEGYQPHVIYRRQSYRVPETKEPTCGLKDSLDNSVKQELQREKWERKNWPSRSLSRRSISKERWVETLVVADTKMIEYHGSENVESYILTIMNMVTGLFHNPSIGNAIHIVVVRLILLEEEEQGLKIVHHAEKTLSSFCKWQKSINPKSDLNPVHHDVAVLLTRKDICAGFNRPCETLGLSHLSGMCQPHRSCNINEDSGLPLAFTIAHELGHSFGIQHDGKENDCEPVGRHPYIMSRQLQYDPTPLTWSKCSEEYITRFLDRGWGFCLDDIPKKKGLKSKVIAPGVIYDVHHQCQLQYGPNATFCQEVENVCQTLWCSVKGFCRSKLDAAADGTQCGEKKWCMAGKCITVGKKPESIPGGGGSDYKDHDGDYKDHDIDYKDDDDK
B2: purified ADAMTS-7 E389Q catalytic inactive proteins (protein)
chain: SVSKEKWVETLVVADAKMVEYHGQPQVESYVLTIMNMVAGLFHDPSIGNPIHITIVRLVLLEDEEEDLKITHHADNTLKSFCKWQKSINMKGDAHPLHHDTAILLTRKDLCAAMNRPCETLGLSHVAGMCQPHRSCSINEDTGLPLAFTVAHQLGHSFGIQHDGSGNDCEPVGKRPFIMSPQLLYDAAPLTWSRCSRQYITRFLDRGWGLCLDDPPAKDIIDFPSVPPGVLYDVSHQCRLQYGAYSAFCEDMDNVCHTLWCSVGTTCHSKLDAAVDGTRCGENKWCLSGECVPVGFRPEAV
B3: rADAMTS-7 (Rat 1-575)-Flag (protein)
chain: LPTEGRAGLDIVHPVRVDAGGSFLSYELWPRVLRKRDVSAAQASSAFYQLQYQGRELLFNLTTNPYLLAPGFVSEIRRRSNLSNVHIQTSVPTCHLLGDVQDPELEGGFAAISACDGLRGVFQLSNEDYFIEPLDEVPAQPGHAQPHMVYKHKRSGQQDDSRTSGTCGVQGSPELKHQREHWEQRQQKRRQQRSISKEKWVETLVVADSKMVEYHGQPQVESYVLTIMNMVAGLYHDPSIGNPIHITVVRLIILEDEEKDLKITHHADDTLKNFCRWQKNVNMKGDDHPQHHDTAILLTRKDLCATMNHPCETLGLSHVAGLCHPQLSCSVSEDTGLPLAFTVAHELGHSFGIQHDGTGNDCESIGKRPFIMSPQLLYDRGIPLTWSRCSREYITRFLDRGWGLCLDDRPSKGVINFPSVLPGVLYDVNHQCRLQYGPSSAYCEDVDNVCYTLWCSVGTTCHSKMDAAVDGTSCGKNKWCLNGECVPEGFQPETVDGGWSGWSAWSVCSRSCGVGVRSSERQCTQPVPKNKGKYCVGERKRYRLCNLQACPENLYFQGDYKDDDDK

Key:
[1] = target: T1, (HiLyteFluor-488)-DELSSMVLELRGLRT-K(QXL5 …)
[2] = target: T2, TSP1-4 substrate, …
[3] = target: T3, TSP1-3 substrate, …
[4] = target: T4, TSP1-1 substrate, …
[5] = target: T5, COMP1 candidate peptide, (Donor) …
[6] = target: T6, TSP1-2 substrate, …
[7] = target: T7, TSP1-5 substrate, …
[8] = target: T8, COMP2 candidate peptide, (Donor) …

Protein | FRET peptide cleavage (increase of fluorescence intensity) [1] | FRET peptide cleavage (Relative Fluorescence Units over time) [2] | FRET peptide cleavage (Relative Fluorescence Units over time) [3] | FRET peptide cleavage (Relative Fluorescence Units over time) [4] | FRET peptide cleavage (Relative Fluorescence Units over time) [5] | FRET peptide cleavage (Relative Fluorescence Units over time) [6] | FRET peptide cleavage (Relative Fluorescence Units over time) [7] | FRET peptide cleavage (Relative Fluorescence Units over time) [8] | kcat [2] [min⁻¹] | kcat [3] [min⁻¹] | kcat [4] [min⁻¹] | kcat [5] [min⁻¹] | kcat [6] [min⁻¹] | kcat [7] [min⁻¹] | kcat [8] [min⁻¹]
B1 | It was surprisingly found that the same substrate could be used for the paralogs ADAMTS-7 and ADAMTS-12 | – | – | – | – | – | – | – | – | – | – | – | – | – | –
B2 | – | Significant activity was not observed with substrates ... with incubation with purified ADAMTS-7 E389Q catalytic inactive proteins (data not shown | Significant activity was not observed with substrates ... with incubation with purified ADAMTS-7 E389Q catalytic inactive proteins (data not shown | Significant activity was not observed with substrates ... with incubation with purified ADAMTS-7 E389Q catalytic inactive proteins (data not shown | Significant activity was not observed with substrates ... with incubation with purified ADAMTS-7 E389Q catalytic inactive proteins (data not shown | Significant activity was not observed with substrates ... with incubation with purified ADAMTS-7 E389Q catalytic inactive proteins (data not shown | Significant activity was not observed with substrates ... with incubation with purified ADAMTS-7 E389Q catalytic inactive proteins (data not shown | Significant activity was not observed with substrates ... with incubation with purified ADAMTS-7 E389Q catalytic inactive proteins (data not shown | – | – | – | – | – | – | –
B3 | – | – | – | Activity data from the rat ADAMTS-7 construct identified TSP1 S1 (SEQ ID NO: 4) as the substrate | – | along with S2 and S5 peptides containing the E289⬇L290 cleavage site | along with S2 and S5 peptides containing the E289⬇L290 cleavage site | – | 0.0026 | 0.0014 | 0.01 | 0.00049 | 0.0077 | 0.0025 | 0.0005
